# Experimental data from patent publication US20100129369A1 (Eli Lilly, published 2010).
# Legend:
# Rat c-Met-Flis-Fc ECD = target: T1, Rat c-Met-Flis-Fc ECD (rat); assay: SPR (Biacore), antibody captured
# T1 construct: also called Rat cMet-ECD-Fc-Flis; rat c-Met ECD
# Procedure: (§1) A Biacore® 2000 instrument is used to measure the binding kinetics of c-Met antibodies to human, cynomolgus monkey, and rat c-Met ECDs. Measurements are performed at 25° C. Samples are dissolved in HBS-EP buffer (150 mM sodium chloride, 3 mM EDTA, 0.005% (w/v) surfactant P-20, and 10 mM N-2-hydroxyethylpiperazine-N′-2-ethanesulfonic acid (HEPES) at pH 7.4; #BR-1001-88).
# (§2) Binding is evaluated using multiple cycles. Each cycle is performed at a flow rate of 50 μL/min., and consists of the following steps: injection of about 10 μL of a c-Met antibody at 10 μg/mL aiming at a capture of 40-100 RUs, injection of 250 μL of human, cynomolgus, or rat c-Met-Flis-Fc ECD (starting at 100 nM and using two-fold serial dilutions for each cycle) followed by 20 min. for dissociation, and regeneration using about 30 μL of 10 mM glycine hydrochloride, pH 1.5. Association and dissociation rates for each cycle are evaluated using a “1:1 (Langmuir) binding” model in the BIAevaluation software, version 4.1.
# mouse c-Met ECD = target: T2, mouse c-Met ECD (mouse, UniProt P16056 25-931); assay: ELISA, coated ECD (data not shown)
# T2 construct: extracellular domain
# T2 sequence (P16056 25-931): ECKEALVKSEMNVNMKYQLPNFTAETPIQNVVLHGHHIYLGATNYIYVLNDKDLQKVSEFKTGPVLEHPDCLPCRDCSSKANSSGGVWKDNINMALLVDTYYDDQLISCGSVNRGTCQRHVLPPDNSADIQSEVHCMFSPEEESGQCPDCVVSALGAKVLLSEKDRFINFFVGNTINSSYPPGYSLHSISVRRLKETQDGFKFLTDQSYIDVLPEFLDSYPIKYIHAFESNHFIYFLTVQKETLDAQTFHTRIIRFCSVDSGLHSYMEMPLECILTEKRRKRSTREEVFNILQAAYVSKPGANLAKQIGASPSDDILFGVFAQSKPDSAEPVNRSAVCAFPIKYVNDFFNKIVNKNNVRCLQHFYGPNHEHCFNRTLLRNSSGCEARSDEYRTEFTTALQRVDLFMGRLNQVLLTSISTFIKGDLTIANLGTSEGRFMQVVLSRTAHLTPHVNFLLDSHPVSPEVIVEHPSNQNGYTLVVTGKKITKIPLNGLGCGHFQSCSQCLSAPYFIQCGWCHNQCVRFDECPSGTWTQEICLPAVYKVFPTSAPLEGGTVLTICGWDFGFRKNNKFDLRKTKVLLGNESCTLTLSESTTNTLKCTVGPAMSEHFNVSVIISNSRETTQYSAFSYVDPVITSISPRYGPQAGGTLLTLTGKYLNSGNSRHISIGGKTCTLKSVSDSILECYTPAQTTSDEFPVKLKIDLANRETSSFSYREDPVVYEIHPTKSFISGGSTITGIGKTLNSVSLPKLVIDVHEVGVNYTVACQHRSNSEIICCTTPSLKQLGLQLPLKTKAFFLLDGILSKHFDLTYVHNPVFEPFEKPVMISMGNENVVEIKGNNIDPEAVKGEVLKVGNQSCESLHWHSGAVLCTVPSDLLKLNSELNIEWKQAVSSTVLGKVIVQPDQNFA
# Human c-Met-Flis-Fc ECD [1] = target: T3, Human c-Met-Flis-Fc ECD (human); assay: ELISA, coated ECD-Fc, antibody 0.000 ng/mL
# T3 construct: also called human c-Met extracellular domain (ECD)-Fc-Flis fusion; Human cMet-ECD-Fc-Flis
# T3 sequence (chain, as listed by the source limits assumed): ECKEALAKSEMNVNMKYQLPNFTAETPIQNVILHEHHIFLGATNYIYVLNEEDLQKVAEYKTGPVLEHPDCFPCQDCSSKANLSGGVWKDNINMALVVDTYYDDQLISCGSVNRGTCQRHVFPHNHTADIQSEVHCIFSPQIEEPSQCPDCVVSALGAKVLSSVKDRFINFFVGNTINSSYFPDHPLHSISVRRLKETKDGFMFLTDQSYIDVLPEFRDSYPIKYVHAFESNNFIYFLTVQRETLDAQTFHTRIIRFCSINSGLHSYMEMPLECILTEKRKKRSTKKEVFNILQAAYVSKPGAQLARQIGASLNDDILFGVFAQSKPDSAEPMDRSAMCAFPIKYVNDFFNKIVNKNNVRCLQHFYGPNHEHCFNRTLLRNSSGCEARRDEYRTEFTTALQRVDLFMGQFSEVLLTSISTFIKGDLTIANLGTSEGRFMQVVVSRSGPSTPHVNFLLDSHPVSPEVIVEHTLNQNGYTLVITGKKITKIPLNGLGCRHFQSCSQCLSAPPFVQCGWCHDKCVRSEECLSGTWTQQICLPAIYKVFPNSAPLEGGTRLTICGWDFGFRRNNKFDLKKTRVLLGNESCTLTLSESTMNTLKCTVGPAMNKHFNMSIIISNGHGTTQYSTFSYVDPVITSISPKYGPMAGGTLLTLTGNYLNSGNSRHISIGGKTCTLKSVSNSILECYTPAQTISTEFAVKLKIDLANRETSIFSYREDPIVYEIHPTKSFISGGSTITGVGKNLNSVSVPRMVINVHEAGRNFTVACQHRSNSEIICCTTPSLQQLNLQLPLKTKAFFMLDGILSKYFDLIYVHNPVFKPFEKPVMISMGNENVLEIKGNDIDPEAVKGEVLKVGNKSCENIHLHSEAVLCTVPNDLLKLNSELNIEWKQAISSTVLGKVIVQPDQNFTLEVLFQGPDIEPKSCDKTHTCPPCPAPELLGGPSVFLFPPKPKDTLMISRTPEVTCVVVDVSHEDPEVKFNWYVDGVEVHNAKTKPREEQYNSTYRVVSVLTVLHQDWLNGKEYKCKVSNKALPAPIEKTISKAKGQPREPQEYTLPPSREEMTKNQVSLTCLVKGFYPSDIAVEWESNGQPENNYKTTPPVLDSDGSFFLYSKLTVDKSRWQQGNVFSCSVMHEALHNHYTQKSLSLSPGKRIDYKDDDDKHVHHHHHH
# Procedure: (§3) Wells of 96-well EIA/RIA high binding plates (Costar, #2592) are coated with 100 μL of 1 μg/mL human c-Met extracellular domain (ECD)-Fc-Flis fusion (SEQ ID NO:72), RON-ECD-Fc (R&D Systems, #1947-MS), or PlexinA2-ECD-Fc (Abnova, Taipei, Taiwan #H00005362-P01) in coating buffer (BioFX Labs, # COAT-1000-01) overnight at 4° C. […] After the plates are washed, 100 μL/well of substrate solution (BioFx, #TMBW-1000-01) are added and the plates are incubated for 10 min. at room temperature. 100 μL/well of stop solution (BioFx, # LSTP-1000-01) are added to stop the reaction. The colorimetric signals are developed and read at 450 nm using a SpectraMax 190 plate reader (Molecular Devices, Sunnyvale, Calif.). c-Met antibody binding to c-Met, RON and PlexinA2 ECDs is proportional to color signal production.
# Human c-Met-Flis-Fc ECD [2] = target: T3, Human c-Met-Flis-Fc ECD; assay: ELISA, coated ECD-Fc, antibody 0.002 ng/mL
# Procedure: as §3
# Human c-Met-Flis-Fc ECD [3] = target: T3, Human c-Met-Flis-Fc ECD; assay: ELISA, coated ECD-Fc, antibody 0.010 ng/mL
# Procedure: as §3
# Human c-Met-Flis-Fc ECD [4] = target: T3, Human c-Met-Flis-Fc ECD; assay: ELISA, coated ECD-Fc, antibody 0.060 ng/mL
# Procedure: as §3
# Human c-Met-Flis-Fc ECD [5] = target: T3, Human c-Met-Flis-Fc ECD; assay: ELISA, coated ECD-Fc, antibody 0.357 ng/mL
# Procedure: as §3
# Human c-Met-Flis-Fc ECD [6] = target: T3, Human c-Met-Flis-Fc ECD; assay: ELISA, coated ECD-Fc, antibody 2.143 ng/mL
# Procedure: as §3
# Human c-Met-Flis-Fc ECD [7] = target: T3, Human c-Met-Flis-Fc ECD; assay: ELISA, coated ECD-Fc, antibody 12.860 ng/mL
# Procedure: as §3
# Human c-Met-Flis-Fc ECD [8] = target: T3, Human c-Met-Flis-Fc ECD; assay: ELISA, coated ECD-Fc, antibody 77.160 ng/mL
# Procedure: as §3
# Human c-Met-Flis-Fc ECD [9] = target: T3, Human c-Met-Flis-Fc ECD; assay: ELISA, coated ECD-Fc, antibody 462.963 ng/mL
# Procedure: as §3
# Human c-Met-Flis-Fc ECD [10] = target: T3, Human c-Met-Flis-Fc ECD; assay: ELISA, coated ECD-Fc, antibody 2777.778 ng/mL
# Procedure: as §3
# Human c-Met-Flis-Fc ECD [11] = target: T3, Human c-Met-Flis-Fc ECD; assay: ELISA, coated ECD-Fc, antibody 16666.667 ng/mL
# Procedure: as §3
# Human c-Met-Flis-Fc ECD [12] = target: T3, Human c-Met-Flis-Fc ECD; assay: ELISA, coated ECD-Fc, antibody 100000.000 ng/mL
# Procedure: as §3
# Human c-Met-Flis-Fc ECD [13] = target: T3, Human c-Met-Flis-Fc ECD; assay: SPR Biacore, antibody captured, ECD-Fc analyte, 1:1 model
# Procedure: as §1, §2
# [14] = target: T4, Cynomolgus Monkey c-Met-Flis-Fc ECD (cynomolgus monkey); assay: as above
# T4 construct: also called Cynomolgus Monkey cMet-ECD-Fc-Flis; cynomolgus monkey c-Met ECD
# T4 sequence (chain, as listed by the source limits assumed): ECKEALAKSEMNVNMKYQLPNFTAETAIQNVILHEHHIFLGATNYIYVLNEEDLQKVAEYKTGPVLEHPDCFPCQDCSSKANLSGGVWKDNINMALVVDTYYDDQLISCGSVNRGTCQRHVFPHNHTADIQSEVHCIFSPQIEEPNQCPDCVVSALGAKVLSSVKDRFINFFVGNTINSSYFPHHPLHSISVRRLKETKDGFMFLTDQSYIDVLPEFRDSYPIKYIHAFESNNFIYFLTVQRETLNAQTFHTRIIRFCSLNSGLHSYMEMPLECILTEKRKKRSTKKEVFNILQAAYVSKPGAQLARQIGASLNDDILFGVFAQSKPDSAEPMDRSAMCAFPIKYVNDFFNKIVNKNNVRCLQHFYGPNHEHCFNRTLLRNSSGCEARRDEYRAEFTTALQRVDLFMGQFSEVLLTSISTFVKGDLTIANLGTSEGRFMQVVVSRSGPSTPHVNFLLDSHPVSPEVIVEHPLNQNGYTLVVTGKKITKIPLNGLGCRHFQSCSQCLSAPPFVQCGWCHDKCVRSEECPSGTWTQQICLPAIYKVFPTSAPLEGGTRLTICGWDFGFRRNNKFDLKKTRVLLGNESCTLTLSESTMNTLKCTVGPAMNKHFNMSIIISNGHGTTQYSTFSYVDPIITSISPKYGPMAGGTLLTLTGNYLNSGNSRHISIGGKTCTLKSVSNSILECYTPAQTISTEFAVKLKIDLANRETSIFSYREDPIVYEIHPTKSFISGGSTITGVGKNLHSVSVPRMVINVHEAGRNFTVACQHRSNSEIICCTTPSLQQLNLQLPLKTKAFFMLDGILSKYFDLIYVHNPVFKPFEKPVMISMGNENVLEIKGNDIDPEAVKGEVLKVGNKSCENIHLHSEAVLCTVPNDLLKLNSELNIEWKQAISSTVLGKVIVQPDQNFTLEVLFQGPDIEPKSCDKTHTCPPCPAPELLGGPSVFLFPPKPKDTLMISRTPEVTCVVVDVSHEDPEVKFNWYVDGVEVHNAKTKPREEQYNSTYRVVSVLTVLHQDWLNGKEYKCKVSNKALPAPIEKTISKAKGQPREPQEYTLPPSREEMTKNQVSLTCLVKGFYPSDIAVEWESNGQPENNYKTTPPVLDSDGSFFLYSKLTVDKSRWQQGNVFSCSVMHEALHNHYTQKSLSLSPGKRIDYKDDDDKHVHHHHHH
# Procedure: as §1, §2
# T1 sequence (chain, as listed by the source limits assumed): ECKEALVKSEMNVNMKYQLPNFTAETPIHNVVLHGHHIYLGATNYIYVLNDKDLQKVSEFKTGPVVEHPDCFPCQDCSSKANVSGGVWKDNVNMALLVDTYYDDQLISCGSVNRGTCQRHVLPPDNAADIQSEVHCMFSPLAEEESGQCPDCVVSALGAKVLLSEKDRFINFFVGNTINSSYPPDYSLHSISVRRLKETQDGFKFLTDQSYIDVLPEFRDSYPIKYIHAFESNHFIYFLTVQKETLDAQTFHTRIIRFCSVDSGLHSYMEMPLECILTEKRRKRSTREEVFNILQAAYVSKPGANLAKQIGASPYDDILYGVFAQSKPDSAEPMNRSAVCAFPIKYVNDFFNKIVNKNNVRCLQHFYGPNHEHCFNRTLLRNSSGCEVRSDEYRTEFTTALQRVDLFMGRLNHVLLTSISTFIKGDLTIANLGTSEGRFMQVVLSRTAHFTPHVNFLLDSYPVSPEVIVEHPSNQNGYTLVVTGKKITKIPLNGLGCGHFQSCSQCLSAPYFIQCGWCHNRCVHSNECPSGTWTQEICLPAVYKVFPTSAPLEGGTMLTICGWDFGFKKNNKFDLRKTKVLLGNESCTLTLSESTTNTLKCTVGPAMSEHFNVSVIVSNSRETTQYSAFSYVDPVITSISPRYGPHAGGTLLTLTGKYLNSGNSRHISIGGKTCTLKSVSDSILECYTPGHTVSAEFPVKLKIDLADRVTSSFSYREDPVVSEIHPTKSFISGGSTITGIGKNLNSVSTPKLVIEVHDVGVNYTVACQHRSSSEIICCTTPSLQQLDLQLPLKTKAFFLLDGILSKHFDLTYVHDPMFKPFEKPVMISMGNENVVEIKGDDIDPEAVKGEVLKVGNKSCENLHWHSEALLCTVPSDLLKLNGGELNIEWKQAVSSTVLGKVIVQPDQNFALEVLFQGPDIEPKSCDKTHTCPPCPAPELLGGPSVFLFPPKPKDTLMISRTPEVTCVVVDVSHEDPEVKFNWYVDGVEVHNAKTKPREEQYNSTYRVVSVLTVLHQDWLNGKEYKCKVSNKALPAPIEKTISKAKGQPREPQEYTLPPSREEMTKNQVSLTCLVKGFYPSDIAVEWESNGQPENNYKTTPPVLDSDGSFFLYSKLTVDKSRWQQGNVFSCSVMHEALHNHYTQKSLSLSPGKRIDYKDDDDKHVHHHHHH
binding result (Rat c-Met-Flis-Fc ECD),binding result (mouse c-Met ECD),Average A450 nm (Human c-Met-Flis-Fc ECD [1]) [A450 nm],Average A450 nm (Human c-Met-Flis-Fc ECD [2]) [A450 nm],Average A450 nm (Human c-Met-Flis-Fc ECD [3]) [A450 nm],Average A450 nm (Human c-Met-Flis-Fc ECD [4]) [A450 nm],Average A450 nm (Human c-Met-Flis-Fc ECD [5]) [A450 nm],Average A450 nm (Human c-Met-Flis-Fc ECD [6]) [A450 nm],Average A450 nm (Human c-Met-Flis-Fc ECD [7]) [A450 nm],Average A450 nm (Human c-Met-Flis-Fc ECD [8]) [A450 nm],Average A450 nm (Human c-Met-Flis-Fc ECD [9]) [A450 nm],Average A450 nm (Human c-Met-Flis-Fc ECD [10]) [A450 nm],Average A450 nm (Human c-Met-Flis-Fc ECD [11]) [A450 nm],Average A450 nm (Human c-Met-Flis-Fc ECD [12]) [A450 nm],Kd (Human c-Met-Flis-Fc ECD [13]) [nM],Kd [14] [nM],koff (Human c-Met-Flis-Fc ECD [13]) [s⁻¹],kon (Human c-Met-Flis-Fc ECD [13]) [M⁻¹ s⁻¹],koff [14] [s⁻¹],kon [14] [M⁻¹ s⁻¹],Binder
no binding,no binding (tested: 100 nM),0.3,0.317,0.317,0.484,0.902,2.86,4,4,4,4,4,4,< 0.1,< 0.2,–,–,–,–,"C8-H241 (antibody, human IgG2, kappa, V domains shown, Called IgG4, kappa; also called Mab C8-H241) VH: QVQLVQSGAEVKKPGASVKVSCKASGYTFTDYYMHWVRQAPGQGLEWMGRVNPNRRGTTYNQKFEGRVTMTTDTSTSTAYMELRSLRSDDTAVYYCARANWLDYWGQGTTVTVSS VL: DIQMTQSPSSLSASVGDRVTITCSVSSSVSSIYLHWYQQKPGKAPKLLIYSTSNLASGVPSRFSGSGSGTDFTLTISSLQPEDFATYYCQVYSGYPLTFGGGTKVEIKR"
no binding,no binding (tested: 100 nM),0.335,0.369,0.374,0.446,0.907,2.89,4,4,4,4,4,4,0.3,< 0.1,3e-05,110000,< 1e-05,103000,"C8-co-16 (antibody, human IgG2, kappa, V domains shown, Called IgG4, kappa) VH: QVQLVQSGAEVKKPGASVKVSCKASGYTFTDYYMHWVRQAPGQGLEWMGRVNPYRGSTTYNQKFEGRVTMTTDTSTSTAYMELRSLRSDDTAVYYCARANILDYWGQGTTVTVSS VL: DIQMTQSPSSLSASVGDRVTITCSVSSSVRSIYLHWYQQKPGKAPKLLIYSTSNLASGVPSRFSGSGSGTDFTLTISSLQPEDFATYYCQVYRGYPLTFGGGTKVEIKR"
